Biological target: Sox9 (UniProt Q04887 1-507)
Assay: EMSA

Sox9, sequence (Q04887 whole entry): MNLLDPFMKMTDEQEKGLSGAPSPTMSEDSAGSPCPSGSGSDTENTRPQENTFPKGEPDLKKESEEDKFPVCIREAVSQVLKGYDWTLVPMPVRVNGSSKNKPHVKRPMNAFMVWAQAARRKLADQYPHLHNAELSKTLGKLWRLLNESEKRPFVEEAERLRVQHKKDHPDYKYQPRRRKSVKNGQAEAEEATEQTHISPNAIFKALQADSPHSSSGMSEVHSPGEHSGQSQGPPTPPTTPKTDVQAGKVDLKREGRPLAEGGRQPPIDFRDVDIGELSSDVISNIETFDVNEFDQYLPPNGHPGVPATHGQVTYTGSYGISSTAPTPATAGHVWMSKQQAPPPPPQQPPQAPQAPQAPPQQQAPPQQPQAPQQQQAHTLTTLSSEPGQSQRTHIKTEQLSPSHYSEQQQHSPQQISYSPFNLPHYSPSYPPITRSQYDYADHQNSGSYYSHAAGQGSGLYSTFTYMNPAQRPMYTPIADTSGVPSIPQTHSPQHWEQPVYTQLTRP

B1: Col2a1 enhancer probe (Sox9-binding site) (dsDNA)
DNA 1: GCGCTTGAGAAAAGCCCCATTCATGAGAGGC
DNA 2: GCCTCTCATGAATGGGGCTTTTCTCAAGCGC
  binding result: binds

— paper PMC2674534
